Here are results for one molecule from patent US20210371520A1 (AGILENT TECHNOLOGIES, published 2021).

For the assay, the target named is T1, human LAG-3 (Lymphocyte-Activation Gene 3) protein (human, UniProt P18627 23-525).
T1 construct: whole, on cells; Endogenous LAG-3 in normal and tumour tissue sections (IHC), not a recombinant protein; also called CD223
T1 sequence (looked up): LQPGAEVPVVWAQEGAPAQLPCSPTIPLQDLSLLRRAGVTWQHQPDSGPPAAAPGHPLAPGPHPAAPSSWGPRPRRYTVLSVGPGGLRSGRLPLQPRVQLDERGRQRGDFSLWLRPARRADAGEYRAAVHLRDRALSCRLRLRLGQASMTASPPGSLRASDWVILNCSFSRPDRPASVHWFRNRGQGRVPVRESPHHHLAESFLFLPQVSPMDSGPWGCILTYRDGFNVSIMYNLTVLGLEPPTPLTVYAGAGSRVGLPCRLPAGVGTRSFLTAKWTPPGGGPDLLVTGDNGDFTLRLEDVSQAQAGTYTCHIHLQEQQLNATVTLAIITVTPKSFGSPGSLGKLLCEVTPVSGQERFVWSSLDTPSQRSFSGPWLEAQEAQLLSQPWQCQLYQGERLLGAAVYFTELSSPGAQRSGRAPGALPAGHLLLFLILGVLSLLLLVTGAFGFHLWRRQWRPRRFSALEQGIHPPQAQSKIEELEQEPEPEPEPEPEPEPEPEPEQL
As to the kind of experiment: double IHC staining on normal tonsil. The text has this:
FIG. 9 illustrates tumor tissue samples of Lung Squamous cell Carcinoma (SQC) (FIG. 10) and kidney renal cell carcinoma (RCC) (FIG. 11); the double IHC staining method follows the protocol of Petersen, et al. 2018 [18] using the EnVision FLEX+™ system in a sequential manner, where the exemplary LAG-3 antibody, clone 12H8 (HRP DAB chromagen) constitutes the first layer followed by a sulfuric acid block step and adding an extra EnVision FLEX+™ staining layer on top with PD1 antibody, clone NAT105 (magenta chromogen)); and FIG. 9 illustrates that LAG-3 is co-localized with the PD1 T cell marker in a subpopulation of activated T cells in the germinal center of the tonsil. Other cells belonging to the activated T cell population is only stained by PD1. The B lymphocytes in the germinal center are negative for both the LAG-3 and the PD1 antibody, illustrating the specificity of both these antibodies: (Red arrow: strongly LAG-3 positive, DAB overshadows magenta PD1. Green arrow: weakly pos LAG-3 with both DAB membrane and DAB golgi and PD1 magenta stain visible). PD1 positive, LAG-3 negative T cells: (orange arrow).

B1: rabbit anti-human LAG-3 antibody, clone 12H8 (antibody, V domains shown)
VH: QSVKESEGGLFKPTDTLTLTCTVSGIDLSSGILVWVRQAPGSGLEWIGGIDANGRAYYASWAKSRSTITRNTNENTVTLKMTSLTAADTATYFCAGGAWNIWGPGTLVTVSS
VL: AQVLTQTPSPVSAAVGGTVTIKCQSSQSVYDSNTLAWFQQKPGQPPKLLMYSASTLAFGVPSRFSGSGSGTQFTLTISDLECADAATYYCLGSYDCSSVDCTAFGGGTEVVVK
notes: also called LAG-3 clone 12H8; exemplary LAG-3 antibody
As for B1, the binding result was “binds”.
